Measured values: patent US20200239575A1 (UNIVERSITY OF UTAH RESEARCH FOUNDATION, published 2020)

Experiments:
[1] = biological target: T1, programmed death-1 receptor (PD-1), mouse, on cells (mouse, UniProt Q02242 25-288); test: cell-based or functional assay
T1 sequence (looked up): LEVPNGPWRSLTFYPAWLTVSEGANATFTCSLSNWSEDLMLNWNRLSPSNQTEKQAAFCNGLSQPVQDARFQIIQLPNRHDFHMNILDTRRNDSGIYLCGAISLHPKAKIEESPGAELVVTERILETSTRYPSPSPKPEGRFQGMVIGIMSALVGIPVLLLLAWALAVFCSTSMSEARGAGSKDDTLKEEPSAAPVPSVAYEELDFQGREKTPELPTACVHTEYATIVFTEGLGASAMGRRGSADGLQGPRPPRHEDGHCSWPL

[2] = biological target: T1, programmed death-1 receptor (PD-1), …; test: flow cytometry, 4 °C 30 min, primary B cells (FIG. 8d)
[3] = biological target: T1, programmed death-1 receptor (PD-1), …; test: flow cytometry, 4 °C 30 min, primary T cells (FIG. 8c)
[4] = biological target: T1, programmed death-1 receptor (PD-1), …; test: flow cytometry, 37 °C 30 min, primary B cells (FIG. 8f)
[5] = biological target: T1, programmed death-1 receptor (PD-1), …; test: flow cytometry, 37 °C 30 min, primary T cells (FIG. 8e)
[6] = biological target: T1, programmed death-1 receptor (PD-1), …; test: flow cytometry, 4 °C 30 min, EL4 against B16 cells (FIG. 10c)
[7] = biological target: T1, programmed death-1 receptor (PD-1), …; test: flow cytometry, 37 °C 30 min, EL4 against B16 cells (FIG. 10e)
[8] = biological target: T1, programmed death-1 receptor (PD-1), …; test: flow cytometry, EL4 cells, competitor PD-L1-Fc 500 nM, 4 °C (FIG. 8g)
[9] = biological target: T1, programmed death-1 receptor (PD-1), …; test: flow cytometry, binding and uptake by EL4 against B16 cells (FIG. 4B)
[10] = biological target: T1, programmed death-1 receptor (PD-1), …; test: flow cytometry, EL4 cells, competitor PD-L1-Fc 500 nM, 37 °C (FIG. 8g)
[11] = biological target: T1, programmed death-1 receptor (PD-1), …; test: flow cytometry dose-response on 1 million EL4 cells, 4 °C 30 min, Alexa Fluor 647-labelled; EC50 of the PD-1^+ fraction taken as Kd (FIG. 10d)
mouse serum albumin = biological target: T2, mouse serum albumin (mouse, UniProt P07724 25-608); test: native PAGE of a 1-to-1 mixture (FIG. 14a)
T2 construct: also called MSA; mouse albumin

human serum albumin = biological target: T3, human serum albumin (human, UniProt P02768 25-609); test: native PAGE of a 1-to-1 mixture (FIG. 14b)
T3 construct: also called HSA

[12] = biological target: T1, programmed death-1 receptor (PD-1), …; test: flow cytometry, Alexa Fluor 647-labelled ABD-PE, 4 °C 30 min, primary T cells, primary B cells, EL4 and B16 cells

B1: αPD-1-ABD-PE (other)
chain: HHHHHHGGGGSEVQLQESGPGLVKPSQSLSLTCSVTGYSITSSYRWNWIRKFPGNCLEWMGYINSAGISNYNPSLKRRISITRDTSKNQFFLQVNSVTTEDAATYYCARSDNMGTTPFTYWGQGTLVTVSSGGGGSGGGGSGGGGSDIVMTQGTLPNPVPSGESVSITCRSSKSLLYSDGKTYLNWYLQRPGQSPQLLIYWMSTRASGVSDRFSGSGSGTDFTLKISGVEAEDVGIYYCQQGLEFPTFGCGTKLELKGGGGSGGGGSGGGGSLAEAKVLANRELDKYGVSDFYKRLINKAKTVEGVEALKLHILAALPGGGGSGGGGSGGGGSRHRQPRGWEQLPTGAEFLGDGGDVSFSTRGTQNWTVERLLQAHRQLEERGYVFVGYHGTFLEAAQSIVFGGVRARSQDLDAIWRGFYIAGDPALAYGYAQDQEPDARGRIRNGALLRVYVPRSSLPGFYRTSLTLAAPEAAGEVERLIGHPLPLRLDAITGPEEEGGRLETILGWPLAERTVVIPSAIPTDPRNVGGDLDPSSIPDKEQAISALPDYASQPGKPPREDLK
modifications: Alexa Fluor 647 NHS ester label in the flow cytometry assays (sites not given)
notes: Order NH2-HisTag-GGGGS-VH-(GGGGS)3-VL-(GGGGS)3-ABD-(GGGGS)3-PE; made in E. coli Shuffle T7; theoretical molecular weight 57.9 kDa; also called the immunotoxin; the toxin
In the case of B1, the “IC50 of cytotoxicity to EL4 cells (FIG. 2C)” value [1] is reported as 1.1 nM, the “IC50 of cytotoxicity to PD-1^+ primary B cells (72 h, live cell count by flow cytometry)” value [1] is reported as 0.47 nM and the “IC50 of cytotoxicity to PD-1^+ primary T cells (72 h, live cell count by flow cytometry)” value [1] is reported as 0.43 nM. For the same binder, the “IC50 of cytotoxicity to wildtype EL4 cells (MTS assay, 72 h)” value [1] was 0.64 nM, the “fold toxicity, wildtype EL4 cells against PD-1 knockout EL4 cells” value [1] was greater than 1000 fold and the “fold MFI, PD-1^+ over PD-1^- primary B cells” value [2] was greater than 5 fold. The “fold MFI, PD-1^+ over PD-1^- primary T cells” value [3] was greater than 4 fold, the “fold MFI (binding and uptake), PD-1^+ over PD-1^- primary B cells” value [4] was greater than 7 fold and the “fold MFI (binding and uptake), PD-1^+ over PD-1^- primary T cells” value [5] was greater than 8 fold. The “fold MFI, EL4 over B16 cells” value [6] was greater than 3 fold, the “fold MFI (binding and uptake), EL4 over B16 cells” value [7] was roughly 12 fold and the “fold decrease of MFI with PD-L1-Fc against αPD-1-ABD-PE alone” value [8] was roughly 8 fold. The “fold binding and uptake, EL4 over B16 cells” value [9] was 11.7 fold, the “fold decrease of MFI with PD-L1-Fc against αPD-1-ABD-PE alone” value [10] was roughly 25 fold and the Kd [11] was 12 nM.

B2: αPD-1 (full IgG) (antibody, V domains shown)
VH: EVQLQESGPGLVKPSQSLSLTCSVTGYSITSSYRWNWIRKFPGNRLEWMGYINSAGISNYNPSLKRRISITRDTSKNQFFLQVNSVTTEDAATYYCARSDNMGTTPFTYWGQGTLVTVSS
VL: DIVMTQGTLPNPVPSGESVSITCRSSKSLLYSDGKTYLNWYLQRPGQSPQLLIYWMSTRASGVSDRFSGSGSGTDFTLKISGVEAEDVGIYYCQQGLEFPTFGGGTKLELK
notes: Rat anti-mouse PD-1 mAb, IgG2a, κ; also called intact αPD-1; αPD-1 IgG
For B2, the Kd [11] was 3.4 nM.

B3: αPD-1-PE (other)
chain: HHHHHHGGGGSEVQLQESGPGLVKPSQSLSLTCSVTGYSITSSYRWNWIRKFPGNCLEWMGYINSAGISNYNPSLKRRISITRDTSKNQFFLQVNSVTTEDAATYYCARSDNMGTTPFTYWGQGTLVTVSSGGGGSGGGGSGGGGSDIVMTQGTLPNPVPSGESVSITCRSSKSLLYSDGKTYLNWYLQRPGQSPQLLIYWMSTRASGVSDRFSGSGSGTDFTLKISGVEAEDVGIYYCQQGLEFPTFGCGTKLELKGGGGSGGGGSGGGGSRHRQPRGWEQLPTGAEFLGDGGDVSFSTRGTQNWTVERLLQAHRQLEERGYVFVGYHGTFLEAAQSIVFGGVRARSQDLDAIWRGFYIAGDPALAYGYAQDQEPDARGRIRNGALLRVYVPRSSLPGFYRTSLTLAAPEAAGEVERLIGHPLPLRLDAITGPEEEGGRLETILGWPLAERTVVIPSAIPTDPRNVGGDLDPSSIPDKEQAISALPDYASQPGKPPREDLK
notes: Control protein without the ABD
B3: no binding (mouse serum albumin); no binding (human serum albumin).

B4: ABD-PE (other)
chain: HHHHHHGGGGSLAEAKVLANRELDKYGVSDFYKRLINKAKTVEGVEALKLHILAALPGGGGSGGGGSGGGGSRHRQPRGWEQLPTGAEFLGDGGDVSFSTRGTQNWTVERLLQAHRQLEERGYVFVGYHGTFLEAAQSIVFGGVRARSQDLDAIWRGFYIAGDPALAYGYAQDQEPDARGRIRNGALLRVYVPRSSLPGFYRTSLTLAAPEAAGEVERLIGHPLPLRLDAITGPEEEGGRLETILGWPLAERTVVIPSAIPTDPRNVGGDLDPSSIPDKEQAISALPDYASQPGKPPREDLK
modifications: Alexa Fluor 647 NHS ester label in the flow cytometry assays (sites not given)
notes: Untargeted control protein without the αPD-1 scFv; also called labeled ABD-PE
B4: no binding (tested: 100 nM) [12].
